Assay results: the Human Domainome abundance scans (Beltran et al. 2025)
± gives the uncertainty stated by the source.

B1: Ras GTPase-activating protein 1, residues 281 to 341; numbered along this chain, P20936 (parent)
chain: RRRVRAILPYTKVPDTDEISFLKGDMFIVHNELEDGWMWVTNLRTDEQGLIVEDLVEEVGR
B2: Metastasis-associated protein MTA3, residues 265 to 317; numbered along this chain, Q9BTC8 (parent)
chain: RDEMEEWSASEASLFEEALEKYGKDFNDIRQDFLPWKSLTSIIEYYYMWKTTD

Variants of: B1
Assay: abundance fitness (aPCA) (normalised: wild type 0, dead -1); higher = more abundant; growth selection in yeast, the domain comes from the species named
Settings: Homo sapiens

Abundance fitness: each site, then its substitutions
G60: Q -0.328 ± 0.18 | S -0.068 ± 0.05 | L -0.227 ± 0.12 | N -0.006 ± 0.065 | A -0.071 ± 0.12 | M -0.289 ± 0.12 | D -0.063 ± 0.057 | P -0.023 ± 0.16 | E 0.003 ± 0.25 | F -0.211 ± 0.07 | Y -0.058 ± 0.1 | H -0.054 ± 0.074 | C -0.081 ± 0.067 | I -0.299 ± 0.11
E53: C -0.079 ± 0.026 | S 0.021 ± 0.025 | R -0.019 ± 0.028 | A -0.027 ± 0.032 | W -0.203 ± 0.055 | L -0.236 ± 0.03 | K 0.01 ± 0.054 | Y -0.121 ± 0.027 | P -0.031 ± 0.04 | I -0.052 ± 0.03 | D -0.045 ± 0.03 | Q -0.034 ± 0.074 | V -0.053 ± 0.028 | H -0.003 ± 0.032 | T 0.041 ± 0.032 | G 0.03 ± 0.027 | F -0.337 ± 0.03
V52: A 0.072 ± 0.029 | P 0.04 ± 0.035 | H 0.029 ± 0.031 | R 0.043 ± 0.027 | M 0.031 ± 0.072 | F 0.009 ± 0.026 | N 0.015 ± 0.028 | W -0.047 ± 0.046 | G 0.059 ± 0.024 | I 0.022 ± 0.027 | Q 0.045 ± 0.056 | L 0.041 ± 0.027 | E -0.123 ± 0.052 | C 0.024 ± 0.027 | K 0 ± 0.046 | S 0.013 ± 0.025 | T 0.023 ± 0.03 | D -0.121 ± 0.031
E58: H -0.156 ± 0.034 | D -0.026 ± 0.037 | A -0.134 ± 0.045 | G -0.156 ± 0.034 | R -0.171 ± 0.035 | Q -0.113 ± 0.069 | T -0.023 ± 0.039 | L -0.348 ± 0.033 | W -0.106 ± 0.061 | F -0.285 ± 0.03 | M -0.326 ± 0.061 | Y -0.305 ± 0.031 | K -0.156 ± 0.063 | C -0.146 ± 0.032 | S -0.064 ± 0.026 | V -0.201 ± 0.035
E57: F -0.527 ± 0.049 | I -0.223 ± 0.034 | T -0.117 ± 0.042 | L -0.368 ± 0.041 | P -0.848 ± 0.099 | V -0.107 ± 0.035 | Y -0.357 ± 0.043 | N -0.447 ± 0.047 | S -0.252 ± 0.031 | R -0.197 ± 0.043 | H -0.224 ± 0.039 | D -0.251 ± 0.053 | M -0.346 ± 0.081 | C -0.168 ± 0.041 | W -0.921 ± 0.17 | K -0.471 ± 0.12 | A -0.232 ± 0.048 | G -0.536 ± 0.048 | Q -0.083 ± 0.081
V59: D -0.067 ± 0.033 | E 0.011 ± 0.053 | M -0.027 ± 0.047 | G -0.176 ± 0.029 | A -0.027 ± 0.032 | H -0.124 ± 0.03 | Q -0.055 ± 0.05 | F -0.106 ± 0.025 | C -0.041 ± 0.028 | I -0.04 ± 0.029 | K -0.451 ± 0.079 | R -0.372 ± 0.033 | N -0.19 ± 0.033 | W -0.137 ± 0.052 | L -0.066 ± 0.027 | T -0.113 ± 0.031
L55: K 0.027 ± 0.051 | E -0.765 ± 0.12 | S -0.018 ± 0.026 | A 0.032 ± 0.032 | M 0.005 ± 0.057 | W -0.165 ± 0.041 | D -0.394 ± 0.035 | N -0.02 ± 0.032 | H 0.059 ± 0.034 | P -0.925 ± 0.086 | R -0.034 ± 0.029 | G -0.348 ± 0.028 | Y 0.034 ± 0.03 | Q -0.033 ± 0.059 | V -0.175 ± 0.029 | I -0.241 ± 0.034 | F 0.015 ± 0.03
V56: P -0.778 ± 0.054 | L -0.711 ± 0.038 | T -0.013 ± 0.032 | G -0.85 ± 0.046 | W -0.844 ± 0.086 | C -0.126 ± 0.028 | H -0.93 ± 0.069 | Y -0.982 ± 0.062 | E -1.07 ± 0.15 | K -0.741 ± 0.1 | S -0.73 ± 0.036 | N -0.874 ± 0.056 | D -0.887 ± 0.052 | R -0.846 ± 0.048 | A -0.421 ± 0.035 | I -0.031 ± 0.028 | F -0.953 ± 0.047 | M -0.23 ± 0.056
I51: W -0.826 ± 0.072 | F -0.826 ± 0.045 | T -0.784 ± 0.054 | E -0.899 ± 0.12 | C -0.401 ± 0.03 | D -0.814 ± 0.049 | P -0.912 ± 0.087 | H -0.857 ± 0.054 | A -0.481 ± 0.034 | G -0.761 ± 0.039 | Y -0.834 ± 0.048 | V 0.023 ± 0.026 | L -0.157 ± 0.029 | Q -1.07 ± 0.16 | R -0.786 ± 0.044 | K -1.09 ± 0.12
L50: R 0.142 ± 0.027 | G -0.613 ± 0.031 | S -0.07 ± 0.024 | I -0.03 ± 0.026 | W -0.07 ± 0.051 | M 0.004 ± 0.059 | H -0.426 ± 0.036 | T -0.04 ± 0.032 | V -0.043 ± 0.024 | K 0.131 ± 0.063 | Y -0.05 ± 0.026 | P -0.504 ± 0.057 | N -0.828 ± 0.044
R61: I -0.003 ± 0.029 | E 0.234 ± 0.16 | G 0.034 ± 0.048 | L 0.039 ± 0.037 | W 0.07 ± 0.076 | Q 0.044 ± 0.083 | Y -0.076 ± 0.031 | D 0.039 ± 0.04 | M -0.031 ± 0.065 | V 0.079 ± 0.039 | H 0.012 ± 0.032 | T 0.092 ± 0.037 | N 0.02 ± 0.033 | P 0.104 ± 0.046 | F 0.021 ± 0.043 | K 0.108 ± 0.074 | A 0.067 ± 0.051
D54: V -0.233 ± 0.037 | H -0.225 ± 0.037 | L -0.281 ± 0.041 | C -0.042 ± 0.035 | P -0.175 ± 0.049 | I -0.338 ± 0.045 | K 0.037 ± 0.073 | R 0.133 ± 0.036 | Q 0 ± 0.075 | E -0.069 ± 0.087 | W -0.184 ± 0.059 | S 0.058 ± 0.029 | N 0.013 ± 0.036 | Y -0.183 ± 0.032 | T 0.016 ± 0.051 | F -0.262 ± 0.041

Variants of: B2
Assay: as above
Settings: Homo sapiens

Abundance fitness, by site and new letter:
S10: A -0.154 ± 0.087
E3: N 0.993 ± 0.19 | K 0.566 ± 0.19 | Q -0.357 ± 0.32 | M 0.132 ± 0.29 | R -0.147 ± 0.11 | G -0.475 ± 0.15 | Y 0.938 ± 0.43 | A -0.342 ± 0.14 | L 0.135 ± 0.08 | P -0.466 ± 0.47 | S 0.173 ± 0.09 | V -0.151 ± 0.095 | D -0.006 ± 0.079 | W -0.873 ± 0.46 | T 0.741 ± 0.15
S8: Y 0.086 ± 0.14 | R -0.93 ± 0.12 | A -0.715 ± 0.18 | G -0.571 ± 0.12 | M -0.771 ± 0.17 | W -0.303 ± 0.16 | H -0.696 ± 0.13 | K -0.696 ± 0.18 | V -0.949 ± 0.15 | F -0.935 ± 0.23 | Q -0.749 ± 0.28 | C -0.9 ± 0.18 | P -0.884 ± 0.14 | L -0.889 ± 0.12 | I -0.518 ± 0.17 | T 0.018 ± 0.1 | D -0.587 ± 0.12
D2: F -0.133 ± 0.47 | H -0.296 ± 0.072 | S -0.249 ± 0.23 | R -0.285 ± 0.15 | W -0.323 ± 0.28 | A 0.033 ± 0.15 | M 0.033 ± 0.22 | G 0.204 ± 0.084 | N 0.058 ± 0.23 | E 0.199 ± 0.076 | P -0.617 ± 0.49 | T 0.271 ± 0.17 | K 0.523 ± 0.093
W7: L -0.71 ± 0.099 | F -0.681 ± 0.26 | E -0.925 ± 0.33 | R -0.715 ± 0.15 | Q -1.03 ± 0.25 | C -0.952 ± 0.13 | T -0.884 ± 0.15 | N -0.697 ± 0.18 | Y -0.496 ± 0.19 | H -0.909 ± 0.14 | S -0.777 ± 0.11 | K -0.549 ± 0.17 | A -0.51 ± 0.12 | D -0.814 ± 0.28 | M -1 ± 0.36 | V -0.979 ± 0.14 | G -0.427 ± 0.16
R1: V 0.231 ± 0.4 | T 0.299 ± 0.16 | C 0.057 ± 0.077 | A 0.304 ± 0.35 | W -0.044 ± 0.26 | L -0.098 ± 0.11 | N 0.378 ± 0.14 | G 0.335 ± 0.17 | M 0.11 ± 0.23 | K 0.028 ± 0.26 | S -0.259 ± 0.2 | F 0.372 ± 0.15 | P -0.529 ± 0.34 | I 0.025 ± 0.23
E6: W -0.862 ± 0.15 | D -0.443 ± 0.32 | G -0.302 ± 0.13 | M 0.08 ± 0.33 | R -0.226 ± 0.13 | H 0.415 ± 0.24 | T -0.267 ± 0.4 | L -0.757 ± 0.24 | P -0.384 ± 0.27 | A 0.228 ± 0.19 | K 0.096 ± 0.28 | F -0.159 ± 0.37 | S -0.289 ± 0.19 | V 0.443 ± 0.2
A9: F -0.726 ± 0.26 | V -0.359 ± 0.086 | N -0.677 ± 0.16 | W -0.527 ± 0.14 | M -0.909 ± 0.25 | L -0.5 ± 0.11 | P -0.29 ± 0.085 | E -0.042 ± 0.12 | T -0.332 ± 0.09 | G -0.714 ± 0.19 | K -0.505 ± 0.097 | S -0.331 ± 0.078 | I -0.335 ± 0.2 | R -0.356 ± 0.072 | Y -0.916 ± 0.17 | C -0.564 ± 0.1
E5: N -0.09 ± 0.25 | L -0.423 ± 0.076 | M -0.209 ± 0.11 | I -0.196 ± 0.26 | T -0.697 ± 0.34 | R -0.341 ± 0.09 | W -0.639 ± 0.24 | D -0.341 ± 0.37 | C -0.341 ± 0.32 | K -0.031 ± 0.16 | Q -0.347 ± 0.46 | H -0.636 ± 0.37 | Y -0.042 ± 0.47 | S -0.107 ± 0.12 | V -0.719 ± 0.26 | A 0.173 ± 0.22
M4: R -0.039 ± 0.15 | S -0.273 ± 0.19 | H 0.156 ± 0.27 | E -0.351 ± 0.29 | D -0.554 ± 0.21 | W -0.666 ± 0.37 | V -0.422 ± 0.19 | I -0.211 ± 0.3 | T -0.481 ± 0.18 | Q -0.885 ± 0.35 | G -0.947 ± 0.2 | K -0.647 ± 0.31 | C -0.307 ± 0.15 | Y -0.797 ± 0.41
